Laboratory results: patent US20200316226A1

Columns and labels:
[1] = molecular target: CD68 on macrophages of mouse splenocytes (mouse) (UniProt P31996); assay: cell-based or functional assay
[2] = molecular target: Discoidin domain receptor tyrosine kinase 2 (DDR2) on neonatal rat cardiac fibroblasts (rat); assay: cell-based or functional assay

UniProt P31996, sequence (P31996 21-326): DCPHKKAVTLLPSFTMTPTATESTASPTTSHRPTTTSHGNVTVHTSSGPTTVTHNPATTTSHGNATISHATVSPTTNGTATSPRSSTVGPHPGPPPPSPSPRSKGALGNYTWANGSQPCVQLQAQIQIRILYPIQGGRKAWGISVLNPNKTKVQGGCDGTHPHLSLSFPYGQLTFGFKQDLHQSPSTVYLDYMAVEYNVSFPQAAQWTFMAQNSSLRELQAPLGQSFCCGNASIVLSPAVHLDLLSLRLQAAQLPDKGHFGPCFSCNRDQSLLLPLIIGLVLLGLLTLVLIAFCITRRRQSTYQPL

macrophage uptake of FITC:CD68-cloaked CDCexo by FACS, 5 minutes of incubation [1]	macrophage uptake of FITC:CD68-cloaked CDCexo by FACS, 15 minutes of incubation [1]	rate of uptake of control-cloaked CDCexo by rat cardiac fibroblasts, flow cytometry [2]	uptake of bio-IgG/FITC CDC-EV by neonatal rat cardiac fibroblasts after twelve hours, flow cytometry [2]	Substance
91%	93%	–	–	biotinylated CD68 monoclonal antibody (bio-CD68), clone FA-11 (ThermoFisher)
–	–	5%	5%	biotinylated IgG isotype antibody (bio-IgG) control (rabbit IgG isotype control, Abcam cat # ab200208)
